Assay results published in the DeepSol protein solubility set.

Test: soluble on expression in E. coli; label from the status in PepcDB or PDB records

Sequence	soluble on expression in E. coli
EGRYIYMNPAHREMFGIATEDEILGRSWRELYSGDVADHIATTALPALLSTGGWRGELIGRRRDGSDLPQEVSLTLKADGGIICISRD	not soluble
MEGEKGSKTRKGDALAREKLLEIAEKIYNQFEEEVVPSVSLPSRTKANLEYSDESDVWVYGDRESERSAKTVKGAFQLLKTTYATDFLINEHLARNRGSTLRELYYISEGWDYAKFKEQGESDRLIEDLEILTSLQREYFHMRPEEDGATMFGPIEITEQTKRGERNIHCQKDVGEGGYQIPFNVENIEFQKHDASMIIAIETGGMYARLMENGFDEAYNAILVHLKGQPARSTRRIIKRMNEELGIPVAVFTDGDPWSYRIYASVAYGAIKSAHLSEFMATPAAKFLGLQPSDIVEYELSTDKLTEQDVSALRSELSDPRFESDYWKEQIQLQLDIGKKAEQQAFAGKGLDFVTEVYLPNRLKEMGMI	soluble
MSLESIKKRAYEIENELGKEIEEVCNFIFNNPELGEEEYISSKYLVEKMKEYGFDTVYPYCNMETAFRAELGDNDGPTIAFLAEYDALPGYGENKEPAHACGHNWIAASTLGACIVLSKLKENFKGKIVLIGTPAEETTGGKCDLVKAGAFDDVDVSYQMHIEAFNNINCKALAIDSLEFSFEGVSAHAASHPHMGVNALDAVQLTFAGINALRQHVKSDVRIHGIVSNGGEAPNIVPEKAACKFFVRAAERSYLDEVTKKVINCAKGAELMTGAKLSYRYFENSFDNIINNKVLQKITKNNLIEAGITDILEGKDGPVGSTDIGNVSQVCPTMYTEIALDISPMVYVHEKEFLNYANSEEAYDKLHKAVKAMVGCALEIYLEDGLLDEIKKNHLNEGHHHHHH	soluble
MSLINTQRLVDHFLQLIQIDSESGNEKKIAETLAEQLGELGFTVHKLPVPAEVSNGFNLYARLEGTLNDSILFSCHMDTVKPGIGIEPVIEDGIIRSKGNTILGGDDKSGIAAILEAVRVLRDSQQAHKTIEIAFTVHEEGGLKGSEHFDMSKVQAEKAIVLDTGGPIGTIVRAAPGQQKIVALIKGKPAHAGLVPEDGISAIAVAADAITQMKLLRIDEETTANIGIVQGGQATNIVMPELKIVAEARSLNDAKLEAQVQHMIETFERAAEKHGATVEIESTRAYNAFKLEEDNAHIQAIKASFETIGIEPKTKLSGGGSDANNFNAKGLTTVNLSTGMAKVHTTEEYIAIADMVKIAEFVCAYTTA	not soluble
MGSDKIHHHHHHMDVTQLKMLHNAKVISEIKKGFSVDRKYQVDETYLVRVFPIDLLQERKQEFKIIQALDSQTPFVPKAYDFGFIEREGYMIISYLRGEDAESGMTHLSHSEQFKAGFSAGEILREVHKIPLDIPKMNWLDFQTAKFKRKVEELKELEITASFLTDTEKFVYKNIARLKNRPICLQHGDFHPANIILNNKKFVGLIDFNRLEFGDPLFDLAKIGFFTTEVSIPFARGNILGYIDKEEVTDFWNLYALYTAMHITSAVSWAAKNESRNFKKLMDYAVKTAASHDNFQKIVPNWMNEEEFK	not soluble
MIRHFKHKGLQLFFETGDKSGIRPDHASRLARQLRQLNDAVNPREMNIPGWKLHPLSGDLSGYWSVMVNGNWRMIFVFDGEDVILVDYRDDH	not soluble
MSALRSVLLLCWRDIGHPQGGGSEAYLQRIGAQLAASGIAVTLRTARYPGAPRHELVDGVRISRAGGRYSVYLWALLAMAAARCGLGPLRRVRPDVVVDTQNGWPFVARLLYGRRSLVLVHHCHREQWPVAGRMMGRLGWYVESMLSPRLHRRNQYVTVSLPSARDLIALGVDSERIAVVRNGLDEAPSPTLSGPRAPTPRVVVLSRLVPHKQIEDALAAVAELQPRIPGLHLDIVGGGWWRQRLVDHVHRLDIADAVTFHGHVDDVTKHHVLQSSWVHLLPSRKEGWGLAVIEAAQHGVPTIGYRSSGGLADSIVDGVTGILVDDRAELVAWLEQLLSDSVLRDQLGAKAQARSGEFSWRQSAEALRSVLEAVQASRFVSGVV	soluble
MAHHHHHHMTQQRGKKAAPSKAAVANASASAPDPPPFFSMGPATFTDAIVITKVISVVLPLRHLRDRNILHTTLLKKLLHRPYEASAEDLAQQQLSQQETDDGGKHDCGAHSALDNLAAPTSSSSSTPYVIVHIKSAEIHADTARQVNPRGDVQVNVMVTLVAARLQHGICAGVSEASPFTSCMQVRVPTVAVSAAVAARGSTDDAATLLLGDALEAGADNVSQEGVKDEKAEPSGGDTALDASVSATTTAAAAKRSCCTGIPADQQLRVTARCLEDEPIVPGQAVLLISEPAAMRCMGIRPPRAAPGSFYLTETTQPSAQFSSGEAEGGPEARPKKRARKSRASAGGTGGATPARRIVSIECAIPKREEDGEGGAAAGPRKGPRKRPHT	not soluble
MKKEPLFVALSNQKGGVGKSTLTVLLASYFHYHKAKNVLVVDCDYPQHSMMTLREWDIKNVEKTPRLQSLLVEQFGDTGRKAYNILASMPEQAKETAYGFIDRSDTEYDLVLLDLPGTVNTTGVFQSIINMDYVFTPITQERMVMQSSMSFVLSIREYLLHHKGVPLRDIHMFWNKMDKRVSRDLYDAYMEIIRSLGLPVLNTVLPAAERYKKDVGLNGQIFRSTLFPPSAAALKGSNFDLLAAEMETILGL	not soluble
MGSDKIHHHHHHMNFISRVTKKNTYMKKAVIYSRVSTDEQAQLGYSLRDQERCLRLFCEKNDLEVVHHYQDDHSAKDFNRPQFQQFLRDVKSKRIKVDYFVCLKQDRFSRDTRLALNSVHDLEKLGVTVKYVENNLDLSIAENIIPYLLNFGIAELENKRLSERTKKGMRQAKREGRWVGTPPRGYKSIPDSTGKKILTPNQYSTLIIEAFTEFAQGNHSTESLRKVLYARGLKVSENQFPNILKNPIYCGKIRIDEWKEEKEEIVIGIHEPLISVELFEKVQRILNGTSTPNKPHKKLDPELPLRPFLKCSCGSNLTGSRSRSRNGNYHYYYHCQNGCSVRFPAKVANKKFETFLSMFSFSEDVILLYKEVLKDEFSKQVKERLELSAADAALKLKTQNLLDNADEKYIANELDNTTYQRVKEKYQKILDTITNKELDSKVVKSEFEKYLKGVTLLDSLDVKYKEGTIEFKNALLGSIFMGKLEFSENEYRTTQINSVVENLLLNFNELASYKKEKATTNSGFLQQAPPLGLEPRTP	not soluble
MSESLRNTITKIVVEKIRCKSLMFMPSHVCATFPFNTQNALVVDIGHSECIAVPIIEGVTMLNEFESARSICGRQLERRVREQMEKYGQIAELNGERRAITENDWQDIDACKLIETLSLSLICLDKERAENWTKWEASEEGEKPDIETLCKERLFPNNGKIFVVPPVVFETSTEIFFNENLNPTSFDLSLPKLLHKLVSKCPIDLRKKLFPNILLTGGVSTIPGLMKRLEQEIQVIDEKNNSKIAVIVKFYQFSEIKNTPLFVSWLGASLLGSLRETIERKSLTLEEWKNGKLAADWTDIIVKSR	not soluble
MEVITFESEAYKALVGKIEKIAGYVAEAQLPSEEKKETWLDSNQLAEALGISTRTLQRLRDENLISYSMLRGRCMYKLSEVERCLEERTIRCKPQTLEDFRKNYLTRTGNDKKG	not soluble
ALGVPFFSCQRGYKGVWRGDGIMQTTCPCGAQITGHVKNGSMRIVGPRTCSNTWHGTFPINAYTTGPCTPSPAPNYSRALWRVAAEEYVEVTRVGDFHYVTGMTTDNVKCPCQVPAPEFFTEVDGVRLHRYAPACKPLLREEVTFLVGLNQYLVGSQLPCEPEPDVAVLTSMDDDDK	soluble
MSLNRSSFDLLSTVEYGGCSAKLDPAKLSELLHDIPLPVDSRIMVDVSTHDDAGVYRLNDDTALIVTTDFFPPVCSDPYTFGRIAAANALSDVYAMGGRPLLVLNLTMFPSEGIPVEVLADILRGGQQTIDESGAFTMGGHTIDDPIPKYGLAVTGIVHPEHLVTNAGVRAGQCLVLTKPLGIGVAMAAHRLGLIGSEVYEAAIGQMCLLNRAGAELMQKYGIRGATDITGFGLLGHAKELAEASDVCLHIDSRSVPVLPECLSLLRDGCIPGATFRNLRFVGDMLRADCPTEYKMLLADAQTSGGLLMAVDADRAEDLVADLHRTGLHPFAAIIGYATDAEDAAKLIVTEGHHHHHH	soluble
MNLNNIRSSMTESTKSKDESMRSHLVKPGSVYDGIEPGELGETTESVQDRVRQLESRNSFLEEQCSQIESEKRYLENQKIKYEREIRKLQSELDRMKTSPLIIGTVIDVIKNDRIIVRSSNGPQFLVNVSQYIDEKKLLPGAKVALNQHTLAIAEVIPSTEEPFVAAMEVIESVEVDYDQIGGLDEQIQELQEAVELPLTSPERFARIGIEPPKGVLLYGLPGTGKTLLAKAVAHRTNATFIRVVGSELVQKYIGDGSKLVREIFEMARKKAPSIIFIDELDSIAARRLNETTGADREVQRTLMQLLAEMDGFDKRKNIRIIAATNRPDVLDPAILRPGRFDRLVHVPMPGIEARGKILKIHCEKMTLAEDIDFKKLAKATEGMSGADLKAIATEAGMFAVRRDKELVEMEEFLEAVEKVSMAADTQKMMPSNLPETMFV	not soluble
MQSFADAKEFFQYSAGQWQSRRVTHHLPFRRAESGGSNIQVETLEKDDPRIIEICQMHDMDASLSVGGSYVTWAGTMQWDKDDENHEGSTVFALIPDADNPRQGKLLRERGYAEIVPVAGEYHLDHEDGLVLTTEYETMTIYERFWFANPDLRLRTSTVKRFGGFNTTTFCMEERIQTSPVTATAAAETNPLYAISGW	not soluble
MYEGKVGFDFLGFTVRQFPVGKYHSGKSSSGKLLGYKTLITPSKAKLKIHAQKIGKLIDEHKAVPQSDLIAHLNPVIRGWTNYYSCVVSKRIFNQADTTLFSQLKAWAEHRHPNKSSRWSCQKYWQTVGSDNWVFKPHNQKIRLLKHRETRIVRHILEHHHHHH	not soluble
MNKKTIQDLIPKAMQAIEGVGIVGKDKKFEKVHEGYINALGPTIIQSGLLPTLIFYNKDKRELWLKALYYMEIISNDIDPTAIIQLIIKEGDSESRQEKTLKELEPKAKEWERKILEYAVALKLALRTFVAKESETGNTEQQKGGAQ	not soluble
MSHGHSHDGAPCGGHHGDDGAGGSRPSVNDVQALVDQLRLAGVDVSNMPNIPTAPRDMDEARSKSFQFWSTQPVPQMDETVPADVNCAIEENIALDKVRAEPFSLPAGFRWSNVDLSDEEQLNELYNLLTRNYVEDDDSMFRFDYSADFLKWALQVPGFRPEWHCGVRADSNNRLLAFIGAVPQTVRVYDKTVNMVEINFLCVHKNLRSRRVAPVLIREITRRVNVTGIFQAAFTAGIVIPKPVSVCRYYHRSLNPRKLIDVRFSHLSAKMTMARTIKLYKLPEETATRNLREMKSTDVPQVFKLLTTSLKQYSLAPVYNSEEELAHALVPKKGVVYSYVAENQNGKITDFVSFYSLPSTVMGHTTHKTIYAAYLYYYVAGSVTPKQLINDSLILANREKFDVFNALDLMHNEKIFSDLKFGKGDGNLQYYLYNWKCADMKPSQIGLVLQ	not soluble
AHHHHHHGSDWKGRDVISIRDFSKEDIEIVLSTAERLEKELKEKGQLEYARGKILATLFFEPSTRTRLSFESAMHRLGGAVIGFAEASTSSVKKGESLADTIKTVEQYSDVIVIRHPKEGAARLAAEVAEIPVINAGDGSNQHPTQTLLDLYTIRKEFGKIDGLKIGLLGDLKYGRTVHSLAEALAYYDVELYLISPELLRMPRHIVEELREKGVTVYETSDLMSVIGELDVLYVTRIQKERFPDEQEYLKVRGSYQVNLQVLSKAKETLKVMHPLPRVDEIHPEVDKTKHAIYFKQVFNGIPVRMALLGLVLGVI	soluble
MVRKQKRARLIYNPTSGQEIMKKNVAEVLDILESFGYETSAFQTTPRADSAKNEAARASQAGFDLVIAAGGDGTINEVVSGIAPLKRRPKVAIIPTGTTNDFARALKIPRGNPVEATKLIGKNQTIHMDIGRAYNDKYFINIAAAGSLTELTYSVPSQLKTMFGYLAYLVKGAELLPRVRNVPVKVFYDHGVFEGEASMIFVALTNSVGGFETIAPDAKLDDGKFTLILVKTANLFELTDLIRLVLTGGRHINHKKIEYIKTSYLKIIPQGNPPKRMMINLDGEYGGDAPIELRNLKNHIEFFANTDEISDDAITLDTEELVLEAIAQKFAREAESLDEMDKTKEQD	soluble
